According to paper PMC4259358, “Functional Characterization of Nuclear Localization and Export Signals in Hepatitis C Virus Proteins and Their Role in the Membranous Web” (PLoS ONE, 2014):

Legend:
Test in all cases: ELISA; plates coated with synthetic peptide (10 µg/ml, carbonate buffer pH 9.6); increasing concentrations of recombinant NTF, 2 h, room temperature; anti-HIS detection; apparent Kd
[1] = molecular target: NS5A NLS synthetic peptide (fused to penetratin) (hepatitis C virus | not stated)
[2] = molecular target: NS3 NLS 2 synthetic peptide (fused to penetratin) (hepatitis C virus | not stated)
[3] = molecular target: Core NLS 4 synthetic peptide (fused to penetratin) (hepatitis C virus | not stated)
[4] = molecular target: SV40 NLS synthetic peptide (fused to penetratin) (SV40 | not stated)

Substance: recombinant IPOA5 (importin α5/kap α1), P52294 1-538 (natural protein; other documents disagree on this pair)
- Kd [1]: 7.63 µM
- Kd [2]: 0.0366 µM
- Kd [3]: 0.518 µM
- Kd [4]: 0.0272 µM
